Measurements published in PMC11051671 (Science Advances, 2024).

Biological target: the molecule itself
Assay: cryo-EM structure

B1: hZnT1-D47N/D255N double mutant (natural protein, human, UniProt Q9Y6M5 1-507, looked up)
chain: MGCWGRNRGRLLCMLALTFMFMVLEVVVSRVTSSLAMLSDSFHMLSNVLALVVALVAERFARRTHATQKNTFGWIRAEVMGALVNAIFLTGLCFAILLEAIERFIEPHEMQQPLVVLGVGVAGLLVNVLGLCLFHHHSGFSQDSGHGHSHGGHGHGHGLPKGPRVKSTRPGSSDINVAPGEQGPDQEETNTLVANTSNSNGLKLDPADPENPRSGDTVEVQVNGNLVREPDHMELEEDRAGQLNMRGVFLHVLGNALGSVIVVVNALVFYFSWKGCSEGDFCVNPCFPDPCKAFVEIINSTHASVYEAGPCWVLYLDPTLCVVMVCILLYTTYPLLKESALILLQTVPKQIDIRNLIKELRNVEGVEEVHELHVWQLAGSRIIATAHIKCEDPTSYMEVAKTIKDVFHNHGIHATTIQPEFASVGSKSSVVPCELACRTQCALKQCCGTLPQAPSGKDAEKTPAVSISCLELSNNLEKKPRRTKAENIPAVVIEIKNMPNKQPESSL
stoichiometry N: 2
